Laboratory results from PMC7497679, “Structure-based design, synthesis, and evaluation of the biological activity of novel phosphoroorganic small molecule IAP antagonists” (Investigational New Drugs, 2020).
Square brackets hold non-standard residues; d marks the D form. 5(6)‑Fam = 5(6)-carboxyfluorescein; Dpm = not defined here

Target: T1, X-linked inhibitor of apoptosis protein (XIAP) BIR3 domain (human)
T1 construct: Neither the catalogue number, the construct limits nor the tags of the Sino Biological protein are stated; also called XIAP BIR3 protein; source: bought: Sino Biological, Beijing, China
Assay: fluorescence polarisation; direct binding: two-fold serial dilutions of XIAP BIR3 domain (2.5 µM to 0.0763 nM) incubated 30 min with probe 4 (2 nM); r.t.; phosphate buffer pH 7.5 with γ-globulin 100 µg/mL and NaN3 0.02%; one site - total binding model
Conditions: both partners purified

Kd: 49.9 ± 5.37 nM
B1: fluorescent probe H2N-Ala-Val-Pro-Dpm-Ala-Lys(5(6)-Fam)-Lys-NH2 (4) (peptide)
chain: H-AVP[Dpm]AK(5(6)‑Fam)K-NH2
modifications: reading uncertain; also: printed as H2N-Ala-Val-Pro-Dpm-Ala-Lys(5(6)-Fam)-Lys-NH2
